From US20240270846A1 (published 2024)

B1: CE115HA000/GLS3000 S56I one-arm antibody (antibody, human IgG1, kappa, L234A L235A, N297A, name in Kabat numbering)
heavy: QVQLVESGGGVVQPGRSLRLSCAASGFTFSNAWMHWVRQAPGKGLEWVAQIKAKSNNYATYYAESVKGRFTISRDDSKNSLYLQMNSLKTEDTAVYYCRYVHYGAYYGVDAWGQGTTVTVSSASTKGPSVFPLAPSSKSTSGGTAALGCLVKDYFPEPVTVSWNSGALTSGVHTFPAVLQSSGLYSLSSVVTVPSSSLGTQTYICNVNHKPSNTKVDKKVEPKSCDKTHTCPPCPAPEAAGGPSVFLFPPKPKDTLMISRTPEVTCVVVDVSHEDPEVKFNWYVDGVEVHNAKTKPREEQYASTYRVVSVLTVLHQDWLNGKEYKCKVSNKALPAPIEKTISKAKGQPREPQVYTLPPSRCELTKNQVSLSCAVKGFYPSDIAVEWESNGQPENNYKTTPPVLDSDGSFFLVSKLTVDKSRWQQGNVFSCSVMHEALHNHYTQKSLSLSPDYKDDDDK
chain: EPKSSDKTHTCPPCPAPELLGGPSVFLFPPKPKDTLMISRTPEVTCVVVDVSHEDPEVKFNWYVDGVEVHNAKTKPREEQYNSTYRVVSVLTVLHQDWLNGKEYKCKVSNKALPAPIEKTISKAKGQPREPQVCTLPPSRDELTKNQVSLWCLVKGFYPSDIAVEWESNGQPENNYKTTPPVLDSDGSFFLYSKLTVDKSRWQQGNVFSCSVMHEALHNRYTQKSLSLSP
light: DIVMTQSPLSLPVTPGEPASISCRSSQSLVHSNRNTYLHWYQQKPGQAPRLLIYKVSNRFIGVPDRFSGSGSGTDFTLKISRVEAEDVGVYYCGQGTQVPYTFGQGTKLEIKRTVAAPSVFIFPPSDEQLKSGTASVVCLLNNFYPREAKVQWKVDNALQSGNSQESVTEQDSKDSTYSLSSTLTLSKADYEKHKVYACEVTHQGLSSPVTKSFNRGEC
notes: one-arm IgG1
B2: CE115HA000/GLS3000 S56N one-arm antibody (antibody, human IgG1, kappa, L234A L235A, N297A, name in Kabat numbering)
heavy: QVQLVESGGGVVQPGRSLRLSCAASGFTFSNAWMHWVRQAPGKGLEWVAQIKAKSNNYATYYAESVKGRFTISRDDSKNSLYLQMNSLKTEDTAVYYCRYVHYGAYYGVDAWGQGTTVTVSSASTKGPSVFPLAPSSKSTSGGTAALGCLVKDYFPEPVTVSWNSGALTSGVHTFPAVLQSSGLYSLSSVVTVPSSSLGTQTYICNVNHKPSNTKVDKKVEPKSCDKTHTCPPCPAPEAAGGPSVFLFPPKPKDTLMISRTPEVTCVVVDVSHEDPEVKFNWYVDGVEVHNAKTKPREEQYASTYRVVSVLTVLHQDWLNGKEYKCKVSNKALPAPIEKTISKAKGQPREPQVYTLPPSRCELTKNQVSLSCAVKGFYPSDIAVEWESNGQPENNYKTTPPVLDSDGSFFLVSKLTVDKSRWQQGNVFSCSVMHEALHNHYTQKSLSLSPDYKDDDDK
chain: EPKSSDKTHTCPPCPAPELLGGPSVFLFPPKPKDTLMISRTPEVTCVVVDVSHEDPEVKFNWYVDGVEVHNAKTKPREEQYNSTYRVVSVLTVLHQDWLNGKEYKCKVSNKALPAPIEKTISKAKGQPREPQVCTLPPSRDELTKNQVSLWCLVKGFYPSDIAVEWESNGQPENNYKTTPPVLDSDGSFFLYSKLTVDKSRWQQGNVFSCSVMHEALHNRYTQKSLSLSP
light: DIVMTQSPLSLPVTPGEPASISCRSSQSLVHSNRNTYLHWYQQKPGQAPRLLIYKVSNRFNGVPDRFSGSGSGTDFTLKISRVEAEDVGVYYCGQGTQVPYTFGQGTKLEIKRTVAAPSVFIFPPSDEQLKSGTASVVCLLNNFYPREAKVQWKVDNALQSGNSQESVTEQDSKDSTYSLSSTLTLSKADYEKHKVYACEVTHQGLSSPVTKSFNRGEC
notes: one-arm IgG1
B3: CE115HA000/GLS3000 S56L one-arm antibody (antibody, human IgG1, kappa, L234A L235A, N297A, name in Kabat numbering)
heavy: QVQLVESGGGVVQPGRSLRLSCAASGFTFSNAWMHWVRQAPGKGLEWVAQIKAKSNNYATYYAESVKGRFTISRDDSKNSLYLQMNSLKTEDTAVYYCRYVHYGAYYGVDAWGQGTTVTVSSASTKGPSVFPLAPSSKSTSGGTAALGCLVKDYFPEPVTVSWNSGALTSGVHTFPAVLQSSGLYSLSSVVTVPSSSLGTQTYICNVNHKPSNTKVDKKVEPKSCDKTHTCPPCPAPEAAGGPSVFLFPPKPKDTLMISRTPEVTCVVVDVSHEDPEVKFNWYVDGVEVHNAKTKPREEQYASTYRVVSVLTVLHQDWLNGKEYKCKVSNKALPAPIEKTISKAKGQPREPQVYTLPPSRCELTKNQVSLSCAVKGFYPSDIAVEWESNGQPENNYKTTPPVLDSDGSFFLVSKLTVDKSRWQQGNVFSCSVMHEALHNHYTQKSLSLSPDYKDDDDK
chain: EPKSSDKTHTCPPCPAPELLGGPSVFLFPPKPKDTLMISRTPEVTCVVVDVSHEDPEVKFNWYVDGVEVHNAKTKPREEQYNSTYRVVSVLTVLHQDWLNGKEYKCKVSNKALPAPIEKTISKAKGQPREPQVCTLPPSRDELTKNQVSLWCLVKGFYPSDIAVEWESNGQPENNYKTTPPVLDSDGSFFLYSKLTVDKSRWQQGNVFSCSVMHEALHNRYTQKSLSLSP
light: DIVMTQSPLSLPVTPGEPASISCRSSQSLVHSNRNTYLHWYQQKPGQAPRLLIYKVSNRFLGVPDRFSGSGSGTDFTLKISRVEAEDVGVYYCGQGTQVPYTFGQGTKLEIKRTVAAPSVFIFPPSDEQLKSGTASVVCLLNNFYPREAKVQWKVDNALQSGNSQESVTEQDSKDSTYSLSSTLTLSKADYEKHKVYACEVTHQGLSSPVTKSFNRGEC
notes: one-arm IgG1
B4: CE115HA000/GLS3000 S56M one-arm antibody (antibody, human IgG1, kappa, L234A L235A, N297A, name in Kabat numbering)
heavy: QVQLVESGGGVVQPGRSLRLSCAASGFTFSNAWMHWVRQAPGKGLEWVAQIKAKSNNYATYYAESVKGRFTISRDDSKNSLYLQMNSLKTEDTAVYYCRYVHYGAYYGVDAWGQGTTVTVSSASTKGPSVFPLAPSSKSTSGGTAALGCLVKDYFPEPVTVSWNSGALTSGVHTFPAVLQSSGLYSLSSVVTVPSSSLGTQTYICNVNHKPSNTKVDKKVEPKSCDKTHTCPPCPAPEAAGGPSVFLFPPKPKDTLMISRTPEVTCVVVDVSHEDPEVKFNWYVDGVEVHNAKTKPREEQYASTYRVVSVLTVLHQDWLNGKEYKCKVSNKALPAPIEKTISKAKGQPREPQVYTLPPSRCELTKNQVSLSCAVKGFYPSDIAVEWESNGQPENNYKTTPPVLDSDGSFFLVSKLTVDKSRWQQGNVFSCSVMHEALHNHYTQKSLSLSPDYKDDDDK
chain: EPKSSDKTHTCPPCPAPELLGGPSVFLFPPKPKDTLMISRTPEVTCVVVDVSHEDPEVKFNWYVDGVEVHNAKTKPREEQYNSTYRVVSVLTVLHQDWLNGKEYKCKVSNKALPAPIEKTISKAKGQPREPQVCTLPPSRDELTKNQVSLWCLVKGFYPSDIAVEWESNGQPENNYKTTPPVLDSDGSFFLYSKLTVDKSRWQQGNVFSCSVMHEALHNRYTQKSLSLSP
light: DIVMTQSPLSLPVTPGEPASISCRSSQSLVHSNRNTYLHWYQQKPGQAPRLLIYKVSNRFMGVPDRFSGSGSGTDFTLKISRVEAEDVGVYYCGQGTQVPYTFGQGTKLEIKRTVAAPSVFIFPPSDEQLKSGTASVVCLLNNFYPREAKVQWKVDNALQSGNSQESVTEQDSKDSTYSLSSTLTLSKADYEKHKVYACEVTHQGLSSPVTKSFNRGEC
notes: one-arm IgG1
B5: CE115HA000/GLS3000 S56P one-arm antibody (antibody, human IgG1, kappa, L234A L235A, N297A, name in Kabat numbering)
heavy: QVQLVESGGGVVQPGRSLRLSCAASGFTFSNAWMHWVRQAPGKGLEWVAQIKAKSNNYATYYAESVKGRFTISRDDSKNSLYLQMNSLKTEDTAVYYCRYVHYGAYYGVDAWGQGTTVTVSSASTKGPSVFPLAPSSKSTSGGTAALGCLVKDYFPEPVTVSWNSGALTSGVHTFPAVLQSSGLYSLSSVVTVPSSSLGTQTYICNVNHKPSNTKVDKKVEPKSCDKTHTCPPCPAPEAAGGPSVFLFPPKPKDTLMISRTPEVTCVVVDVSHEDPEVKFNWYVDGVEVHNAKTKPREEQYASTYRVVSVLTVLHQDWLNGKEYKCKVSNKALPAPIEKTISKAKGQPREPQVYTLPPSRCELTKNQVSLSCAVKGFYPSDIAVEWESNGQPENNYKTTPPVLDSDGSFFLVSKLTVDKSRWQQGNVFSCSVMHEALHNHYTQKSLSLSPDYKDDDDK
chain: EPKSSDKTHTCPPCPAPELLGGPSVFLFPPKPKDTLMISRTPEVTCVVVDVSHEDPEVKFNWYVDGVEVHNAKTKPREEQYNSTYRVVSVLTVLHQDWLNGKEYKCKVSNKALPAPIEKTISKAKGQPREPQVCTLPPSRDELTKNQVSLWCLVKGFYPSDIAVEWESNGQPENNYKTTPPVLDSDGSFFLYSKLTVDKSRWQQGNVFSCSVMHEALHNRYTQKSLSLSP
light: DIVMTQSPLSLPVTPGEPASISCRSSQSLVHSNRNTYLHWYQQKPGQAPRLLIYKVSNRFPGVPDRFSGSGSGTDFTLKISRVEAEDVGVYYCGQGTQVPYTFGQGTKLEIKRTVAAPSVFIFPPSDEQLKSGTASVVCLLNNFYPREAKVQWKVDNALQSGNSQESVTEQDSKDSTYSLSSTLTLSKADYEKHKVYACEVTHQGLSSPVTKSFNRGEC
notes: one-arm IgG1
B6: CE115HA000/GLS3000 S56K one-arm antibody (antibody, human IgG1, kappa, L234A L235A, N297A, name in Kabat numbering)
heavy: QVQLVESGGGVVQPGRSLRLSCAASGFTFSNAWMHWVRQAPGKGLEWVAQIKAKSNNYATYYAESVKGRFTISRDDSKNSLYLQMNSLKTEDTAVYYCRYVHYGAYYGVDAWGQGTTVTVSSASTKGPSVFPLAPSSKSTSGGTAALGCLVKDYFPEPVTVSWNSGALTSGVHTFPAVLQSSGLYSLSSVVTVPSSSLGTQTYICNVNHKPSNTKVDKKVEPKSCDKTHTCPPCPAPEAAGGPSVFLFPPKPKDTLMISRTPEVTCVVVDVSHEDPEVKFNWYVDGVEVHNAKTKPREEQYASTYRVVSVLTVLHQDWLNGKEYKCKVSNKALPAPIEKTISKAKGQPREPQVYTLPPSRCELTKNQVSLSCAVKGFYPSDIAVEWESNGQPENNYKTTPPVLDSDGSFFLVSKLTVDKSRWQQGNVFSCSVMHEALHNHYTQKSLSLSPDYKDDDDK
chain: EPKSSDKTHTCPPCPAPELLGGPSVFLFPPKPKDTLMISRTPEVTCVVVDVSHEDPEVKFNWYVDGVEVHNAKTKPREEQYNSTYRVVSVLTVLHQDWLNGKEYKCKVSNKALPAPIEKTISKAKGQPREPQVCTLPPSRDELTKNQVSLWCLVKGFYPSDIAVEWESNGQPENNYKTTPPVLDSDGSFFLYSKLTVDKSRWQQGNVFSCSVMHEALHNRYTQKSLSLSP
light: DIVMTQSPLSLPVTPGEPASISCRSSQSLVHSNRNTYLHWYQQKPGQAPRLLIYKVSNRFKGVPDRFSGSGSGTDFTLKISRVEAEDVGVYYCGQGTQVPYTFGQGTKLEIKRTVAAPSVFIFPPSDEQLKSGTASVVCLLNNFYPREAKVQWKVDNALQSGNSQESVTEQDSKDSTYSLSSTLTLSKADYEKHKVYACEVTHQGLSSPVTKSFNRGEC
notes: one-arm IgG1

Target: T1, CD3 epsilon homodimer protein (UniProt P07766 23-126)
T1 construct: also called CD3 (CD3 epsilon)
Assay: SPR (Biacore T200), CD3e homodimer on CM4 chip, antibody as analyte; KD ratio vs unaltered GLS3000;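 note: CD3 epsilon homodimer amine-coupled to the sensor surface, antibodies injected as analyte at 25 °C with HBS-EP+ running buffer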

T1 sequence (P07766 23-126): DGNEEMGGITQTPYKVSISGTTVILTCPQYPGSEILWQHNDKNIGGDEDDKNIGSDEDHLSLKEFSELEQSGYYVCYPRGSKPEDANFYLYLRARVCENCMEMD

B1 was tested. Which “KD ratio to GLS3000” value did it give?
The value was 1.01 ratio.

B2 was tested. Which “KD ratio to GLS3000” value did it give?
Its value is 0.9 ratio.

With B3 as the binder, how does the “KD ratio to GLS3000” value read?
The value was 1.03 ratio.

B4 was tested. Which “KD ratio to GLS3000” value did it give?
The value was 0.93 ratio.

With B5 as the binder, how does the “KD ratio to GLS3000” value read?
Its value is 0.98 ratio.

B6 was tested. Which “KD ratio to GLS3000” value did it give?
The value was 1.21 ratio.
